Test results as given in patent US20230357429A1 (JANUX THERAPEUTICS, published 2023).
Read-outs that look alike come from different tables or passages of the source. Where no end group is shown, it is not given here.

T1: Human TROP2 ECD (31-274 AA), biotinylated (human, UniProt P09758 31-274, biotinylated (site not stated))
T1 construct: also called tumor-associated calcium signal transducer 2; Human TROP2-biotin
T1 sequence: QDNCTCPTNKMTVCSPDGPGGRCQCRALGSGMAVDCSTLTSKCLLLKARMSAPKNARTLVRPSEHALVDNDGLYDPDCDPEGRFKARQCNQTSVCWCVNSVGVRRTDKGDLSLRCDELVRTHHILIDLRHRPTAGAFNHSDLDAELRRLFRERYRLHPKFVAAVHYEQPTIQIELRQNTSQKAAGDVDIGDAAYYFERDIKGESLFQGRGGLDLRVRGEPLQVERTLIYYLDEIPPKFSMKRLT

B1: PC-15 (bispecific antibody)
light: not shown
heavy: GGVDFCGLYHWPICYQGGGGSGGLSGRSDAGSPLGLAGSGGSQVQLQQSGSELKKPGASVKVSCKASGYTFTNYGMNWVKQAPGQGLKWMGWINTYTGEPTYTDDFKGRFAFSLDTSVSTAYLQISSLKADDTAVYFCARGGFGSSYWYADVWGQGSLVTVSSASTKGPSVFPLAPSSKSTSGGTAALGCLVKDYFPEPVTVSWNSGALTSGVHTFPAVLQSSGLYSLSSVVTVPSSSLGTQTYICNVNHKPSNTKVDKKVEPKSC
notes: anti-TROP2 F108A
B2: TCE-3 (bispecific antibody)
light: not shown
heavy: QVQLQQSGSELKKPGASVKVSCKASGYTFTNYGMNWVKQAPGQGLKWMGWINTYTGEPTYTDDFKGRFAFSLDTSVSTAYLQISSLKADDTAVYFCAAGGFGSSYWYFDVWGQGSLVTVSSASTKGPSVFPLAPSSKSTSGGTAALGCLVKDYFPEPVTVSWNSGALTSGVHTFPAVLQSSGLYSLSSVVTVPSSSLGTQTYICNVNHKPSNTKVDKKVEPKSC
B3: PC-12 (bispecific antibody)
light: GGVDFCGLYHWPICYQGGGGSGGLSGRSDAGSPLGLAGSGGSDIQLTQSPSSLSASVGDRVSITCKASQDVSIAVAWYQQKPGKAPKLLIYSASYRYTGVPDRFSGSGSGTDFTLTISSLQPEDFAVYYCQQHYITPLTFGAGTKVEIKRTVAAPSVFIFPPSDEQLKSGTASVVCLLNNFYPREAKVQWKVDNALQSGNSQESVTEQDSKDSTYSLSSTLTLSKADYEKHKVYACEVTHQGLSSPVTKSFNRGEC
heavy: not shown
notes: anti-TROP2 R98A
B4: PC-26 (bispecific antibody)
light: GGVDFCAIYSWPICKIGGGGSGGLSGRSDAGSPLGLAGSGGSDIQLTQSPSSLSASVGDRVSITCKASQDVSIAVAWYQQKPGKAPKLLIYSASYRYTGVPDRFSGSGSGTDFTLTISSLQPEDFAVYYCQQHYITPLTFGAGTKVEIKRTVAAPSVFIFPPSDEQLKSGTASVVCLLNNFYPREAKVQWKVDNALQSGNSQESVTEQDSKDSTYSLSSTLTLSKADYEKHKVYACEVTHQGLSSPVTKSFNRGEC
heavy: not shown
notes: anti-TROP2 D109A
B5: PC-22 (bispecific antibody)
light: GGVDFCGLYHWPICYQVGGGSGGLSGRSDAGSPLGLAGSGGSDIQLTQSPSSLSASVGDRVSITCKASQDVSIAVAWYQQKPGKAPKLLIYSASYRYTGVPDRFSGSGSGTDFTLTISSLQPEDFAVYYCQQHYITPLTFGAGTKVEIKRTVAAPSVFIFPPSDEQLKSGTASVVCLLNNFYPREAKVQWKVDNALQSGNSQESVTEQDSKDSTYSLSSTLTLSKADYEKHKVYACEVTHQGLSSPVTKSFNRGEC
heavy: not shown
notes: anti-TROP2 R98A
B6: PC-16 (bispecific antibody)
light: GGIDFCAIYQWPVCRSGGGGSGGLSGRSDAGSPLGLAGSGGSDIQLTQSPSSLSASVGDRVSITCKASQDVSIAVAWYQQKPGKAPKLLIYSASYRYTGVPDRFSGSGSGTDFTLTISSLQPEDFAVYYCQQHYITPLTFGAGTKVEIKRTVAAPSVFIFPPSDEQLKSGTASVVCLLNNFYPREAKVQWKVDNALQSGNSQESVTEQDSKDSTYSLSSTLTLSKADYEKHKVYACEVTHQGLSSPVTKSFNRGEC
heavy: not shown
notes: anti-TROP2 D109A
B7: PC-14 (bispecific antibody)
light: GGVDFCGLYHWPICYQGGGGSGGLSGRSDAGSPLGLAGSGGSDIQLTQSPSSLSASVGDRVSITCKASQDVSIAVAWYQQKPGKAPKLLIYSASYRYTGVPDRFSGSGSGTDFTLTISSLQPEDFAVYYCQQHYITPLTFGAGTKVEIKRTVAAPSVFIFPPSDEQLKSGTASVVCLLNNFYPREAKVQWKVDNALQSGNSQESVTEQDSKDSTYSLSSTLTLSKADYEKHKVYACEVTHQGLSSPVTKSFNRGEC
heavy: not shown
notes: anti-TROP2 F108A
B8: PC-20 (bispecific antibody)
light: GGVDFCALYHWPICYQGGGGSGGLSGRSDAGSPLGLAGSGGSDIQLTQSPSSLSASVGDRVSITCKASQDVSIAVAWYQQKPGKAPKLLIYSASYRYTGVPDRFSGSGSGTDFTLTISSLQPEDFAVYYCQQHYITPLTFGAGTKVEIKRTVAAPSVFIFPPSDEQLKSGTASVVCLLNNFYPREAKVQWKVDNALQSGNSQESVTEQDSKDSTYSLSSTLTLSKADYEKHKVYACEVTHQGLSSPVTKSFNRGEC
heavy: not shown
notes: anti-TROP2 D109A
B9: PC-24 (bispecific antibody)
light: GGVDFCGLYHWPICYQVGGGSGGLSGRSDAGSPLGLAGSGGSDIQLTQSPSSLSASVGDRVSITCKASQDVSIAVAWYQQKPGKAPKLLIYSASYRYTGVPDRFSGSGSGTDFTLTISSLQPEDFAVYYCQQHYITPLTFGAGTKVEIKRTVAAPSVFIFPPSDEQLKSGTASVVCLLNNFYPREAKVQWKVDNALQSGNSQESVTEQDSKDSTYSLSSTLTLSKADYEKHKVYACEVTHQGLSSPVTKSFNRGEC
heavy: not shown
notes: anti-TROP2 D109A
B10: TCE-6 (bispecific antibody)
light: DIQLTQSPSSLSASVGDRVSITCKASQDVSIAVAWYQQKPGKAPKLLIYSASYRYTGVPDRFSGSGSGTDFTLTISSLQPEDFAVYYCQQHYITPLTFGAGTKVEIKRTVAAPSVFIFPPSDEQLKSGTASVVCLLNNFYPREAKVQWKVDNALQSGNSQESVTEQDSKDSTYSLSSTLTLSKADYEKHKVYACEVTHQGLSSPVTKSFNRGEC
heavy: not shown

Key:
[1] = target: T2, TBD-22 (HC D109A); assay: competition ELISA, peptide vs Fab binding to captured biotin-TROP2
T2 construct: Fab; also called HC D109A mutant

[2] = target: T3, TBD-17 (HC S104A); assay: as above
T3 construct: Fab; also called HC S104A mutant

[3] = target: T4, TBD-6 (LC I93A); assay: as above
T4 construct: Fab; also called LC I93A mutant

[4] = target: T5, TBD-11 (HC R98A); assay: as above
T5 construct: Fab; also called HC R98A mutant

[5] = target: T6, TBD-1 wt; assay: as above
T6 construct: Fab; the heavy chain entry is VH-CH1; also called wild-type anti-TROP2 Fab (hRS7); TROP2 Fab

[6] = target: T7, TBD-21 (HC F108A); assay: as above
T7 construct: Fab; also called HC F108A mutant

[7] = target: T2, TBD-22 (HC D109A); assay: as above; remark: listed apart in the source
[8] = target: T3, TBD-17 (HC S104A); assay: as above; remark: listed apart in the source
[9] = target: T4, TBD-6 (LC I93A); assay: as above; remark: listed apart in the source
[10] = target: T5, TBD-11 (HC R98A); assay: as above; remark: listed apart in the source
[11] = target: T6, TBD-1 wt; assay: as above; remark: listed apart in the source
[12] = target: T7, TBD-21 (HC F108A); assay: as above; remark: listed apart in the source
[13] = target: T1, Human TROP2 ECD (31-274 AA), …; assay: ELISA on immobilized TROP2
[14] = target: T1, Human TROP2 ECD (31-274 AA), …; assay: ELISA on immobilized TROP2; remark: listed apart in the source

Binder	IC50 [7] [nM]	IC50 [8] [nM]	IC50 [9] [nM]	IC50 [10] [nM]	IC50 [11] [nM]	IC50 [12] [nM]	EC50 [13] [nM]	EC50 [14] [nM]	other results
IDFCMLYNWPICAG (cysteine pairing not given here; also: biotinylated, site not given here) [Peptide-3]	120	1480	530	2720	430	2000	–	–	IC50 [1]: 90 nM; IC50 [2]: 1010 nM; IC50 [3]: 370 nM; IC50 [4]: 1480 nM; IC50 [5]: 340 nM; IC50 [6]: 2640 nM
B1	–	–	–	–	–	–	363	–	–
VDFCSIYHWPVCYV (cysteine pairing not given here; also: biotinylated, site not given here) [Peptide-38]	170	2030	520	4420	1630	3540	–	–	–
B2	–	–	–	–	–	–	3.18	–	–
VDFCGLYHWPICYQVD (cysteine pairing not given here; also: biotinylated, site not given here) [Peptide-39]	140	1690	670	1640	460	2230	–	–	–
VDFCGLYHWPICYQVY (cysteine pairing not given here; also: biotinylated, site not given here) [Peptide-41]	110	1550	580	1510	640	1500	–	–	–
VDFCYLYSWPICTK (cysteine pairing not given here; also: biotinylated, site not given here) [Peptide-40]	580	7260	2280	14600	3630	10000	–	–	–
B3	–	–	–	–	–	–	352	–	–
B4	–	–	–	–	–	–	–	54.3	–
B5	–	–	–	–	–	–	–	142	–
B6	–	–	–	–	–	–	–	69.8	–
B7	–	–	–	–	–	–	333	–	–
B8	–	–	–	–	–	–	–	74.3	–
B9	–	–	–	–	–	–	–	87.5	–
VDFCKIYSWPVCHQ (cysteine pairing not given here; also: biotinylated (site not given here)) [Peptide-25]	290	3750	1280	18000	3030	6730	–	–	IC50 [1]: 140 nM; IC50 [2]: 3040 nM; IC50 [3]: 1030 nM; IC50 [4]: 8100 nM; IC50 [5]: 2580 nM; IC50 [6]: 6450 nM
B10	–	–	–	–	–	–	0.46	0.37	–
